# Experimental data as given in US6037158A, “Alcohol dehydrogenase and its use for the enzymatic production of chiral hydroxy compounds” (priority 1996, dated 2000).
# Like-named read-outs stand apart in the source and are kept apart here.
# T1: alcohol dehydrogenase from Lactobacillus brevis (Levilactobacillus brevis, UniProt Q84EX5)
# T1 construct: same enzyme regenerates NADPH with isopropanol
# T1 sequence (Q84EX5 2-252): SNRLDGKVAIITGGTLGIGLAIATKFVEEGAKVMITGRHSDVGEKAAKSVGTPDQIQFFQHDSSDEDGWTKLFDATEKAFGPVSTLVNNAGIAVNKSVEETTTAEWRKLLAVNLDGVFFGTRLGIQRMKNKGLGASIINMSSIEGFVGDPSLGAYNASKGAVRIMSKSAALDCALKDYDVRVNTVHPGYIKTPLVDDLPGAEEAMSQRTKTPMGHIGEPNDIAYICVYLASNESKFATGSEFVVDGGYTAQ
# T2: alcohol dehydrogenase from L. brevis (Levilactobacillus brevis, UniProt Q84EX5)
# T2 sequence (Q84EX5 2-252): T1 sequence (Q84EX5 2-252)
# B1: alcohol dehydrogenase from Lactobacillus brevis: stable R-specific NADP-dependent alcohol dehydrogenase purified to homogeneity from Lactobacillus brevis DSM 20054 (protein)
# chain: MSNRLDGKVAIITGGTLGIGLAIATKFVEEGAKVMITGRHSDVGEKAAKSVGTPDQIQFFQHDSSDEDGWTKLFDATEKAFGPVSTLVNNAGIAVNKSVEETTTAEWRKLLAVNLDGVFFGTRLGIQRMKNKGLGASIINMSSIEGFVGDPSLGAYNASKGAVRIMSKSAALDCALKDYDVRVNTVHPGYIKTPLVDDLPGAEEAMSQRTKTPMGHIAEPNDIAYICVYLASNESKFATGSEFVVDGGYTAQ
# Columns and labels:
# [1] = target: T1, alcohol dehydrogenase from Lactobacillus brevis; format: biochemical; settings: l. brevis alcohol dehydrogenase, 24 h, 5000 µM, pH 7
# Description: Purified enzyme (example 2C) and the necessary coenzyme (NADP) were used for the enzyme-catalysed synthesis of (R)-phenylethanol from acetophenone. The oxidized co-enzyme was continuously regenerated by isopropanol which was simultaneously present so that the reaction only required catalytic amounts of coenzyme. In detail the mixture contained (the final concentrations of the components in the test are listed in brackets): 20 μl NADP (0.05 mM), 7.7 μl isopropanol (0.1 M), 0.6 μl acetophenone (5 mM), 921.7 μl triethanolamine buffer (50 mM; pH 7.0, containing 1 mM MgCl2) and 50 μl alcohol dehydrogenase from Lactobacillus brevis (4.5 units). This mixture with a total volume of 1 ml was incubated for 24 hours at 30° C., then a sample was analysed by means of gas chromatography. For this 100 μl was removed, shaken out with 100 μl chloroform, the phases were separated by centrifugation and an aliquot was taken from the lower phase (chloroform) for the GC.
# The separation conditions for the separation of (R)- and (S)-phenylethanol on a gas chromatograph: stationary phase: Lipodex E, CD column (Macherey and Nagel, Duren), mobile phase: helium, injection volumes: 1 μl detection: FID, temperature: 110° C. Under these conditions the substrate acetophenone is eluted at 10.5 min, (S)-phenylethanol at 13.8 min and (R)-phenylethanol at 14.2 min. […]
# [2] = tested on: whole cells of Lactobacillus brevis; experiment: Reduction of ketones with whole cells; format: cell-based; settings: after 2 h incubation at 30° C., 10 mM acetophenone, 50 mg cells, 0.1 M glucose
# Description: In addition ketones can be reduced to chiral alcohols using whole cells of L. brevis. […] The coenzyme regeneration can be achieved by isopropanol or by metabolizable substrates such as glucose.
# Test mixture: 50 mg cells of L. brevis (wetweight after centrifugation) is suspended in 860 μl triethanolamine buffer (50 mM; pH 7.50; addition of 1 MM MgCl^2+) which contains 0.1 M glucose and 10 mM acetophenone. Samples are analysed by means of gas chromatography. […] Since a quantification by means of GC separation on a chiral stationary phase had been carried out, it was possible to show at the same time that the phenylethanol that forms is of high optical purity but no quantifiable (S)-alcohol could be detected. The optical purity is considerably >95% for (R)-alcohol.
# [3] = target: T2, alcohol dehydrogenase from L. brevis; experiment: biochemical; format: biochemical; settings: 10 mM keto compound
# Description: A series of other ketones and keto esters were used instead of acetophenone and it was tested whether these can be reduced by enzyme catalysis.
# The following test mixture was used for this:
# 970 μl triethanolamine buffer (50 mM; pH 7.0, containing 10 mM keto compound)
# 20 μl NADPH (0.19 mM in the test)
# Some of the ketones were also tested at a concentration of 1 mM in order to verify a possible substrate inhibition at 10 mM.
# [4] = Temperature stability of the alcohol dehydrogenase (30 min at temperature, measured at 30° C.); format: physicochemical; settings: for temperature of maximum stability: 30 min
# Description: The temperature stability in the range of 25 to 70° C. was determined in an analogous manner to that described under A. The homogeneous enzyme solution was subjected for 30 min to the recited temperatures and subsequently measured directly at 30° C. with the above test mixture. […] In contrast the ADH from L. kefir is only stable up to 40° C. with a maximum at 37° C., afterwards the activity decreases rapidly. The maximum for this enzyme is at 37° C.
# [5] = pH stability of the alcohol dehydrogenase (30 min incubation, then standard acetophenone test); format: physicochemical; settings: for Activity: 30 min
# Description: The dependence of the activity of the enzyme when stored in buffers with various pH values was examined in the range of pH 4 to 11. Depending on the buffer capacity various buffers in the pH range of 4 to 11 were prepared and the homogeneous enzyme was incubated therein for 30 minutes. 1 μl thereof was removed and added to the normal test reagent mixture of 970 μl triethanolamine buffer (100 mM; pH 7.0 containing 11 mM acetophenone) and 20 μl NADPH (final concentration 0.19 mM). The reaction was monitored for 1 minute at 30° C. and 340 nm.
# [6] = Temperature optimum of enzyme activity; format: biochemical
# [7] = Standard enzyme test of purified enzyme (acetophenone, NADPH); format: biochemical
# Description: The process for the isolation and purification of the ADH enzyme proceeds essentially via the following process steps: disruption of the cultured cells, such as by glass beads, carrying out hydrophobic chromatography or interaction chromatography and followed by subsequent anion exchange and affinity chromatography. In particular it has proven to be advantageous when all homogenization and elution buffers contain from about 0.5 to about 5 mM magnesium. In this connection a Mg^2+ concentration of about 1 mM has proven to be particularly advantageous. In this manner an enzyme is obtained which has a specific activity of at least 400 U/mg and in many cases up to 500 U/mg.
# The enzyme was released from the cells by wet-grinding with the aid of glass beads (0.3 mm), but can also be achieved by any other method for disrupting bacterial cells. The bacterial mass is diluted to a 40% suspension with 0.1 M acetate buffer pH 4.0+1 mM MgCl2 supplemented with an antifoaming agent (polypropylene glycol). This was subjected to a 20 minute disruption while cooling continuously in a disintegrator (IMA Co.) at 4000 rpm with addition of glass beads in a ratio of 1:2. 8 g bacteria yielded 10 ml crude extract with a volume activity of 40 U/ml and a protein content of ca. 3 mg/ml. […]
# [8] = listed as enzyme according to the invention
molecule,measurement,setting,value
CC(=O)c1ccccc1 [acetophenone],substrate converted,[1],more than 95%
same,substrate remaining (GC),[2],no longer detectable
same,Activity,"[3]; 0.19 mM NADPH, pH 7.0, purified enzyme diluted 1:10",3.26 U/ml
same,activity at 10000 µM,"[3]; relative to acetophenone = 100, read-out: Relative act.",100%
B1,temperature at which the enzyme is inactivated by 50% (thermal deactivation),[4],about 65 °C
same,retained activity,"[4]; 50 mM MES buffer, about 30 minutes, between 25° C. and 60° C.",over 95%
same,temperature of maximum stability,[4],40 °C
same,temperature of maximum stability,[4]; [8],ca. 40 °C
same,act. (temperature stability),[4]; 30 min at 25° C.,9.43 U/ml
same,act. (temperature stability),[4]; 30 min at 30° C.,8.74 U/ml
same,act. (temperature stability),[4]; 30 min at 37° C.,12.06 U/ml
same,act. (temperature stability),[4]; 30 min at 40° C.,12.15 U/ml
same,act. (temperature stability),[4]; 30 min at 42° C.,11.16 U/ml
same,act. (temperature stability),[4]; 30 min at 45° C.,10.81 U/ml
same,act. (temperature stability),[4]; 30 min at 47° C.,8.23 U/ml
same,act. (temperature stability),[4]; 30 min at 50° C.,8.37 U/ml
same,act. (temperature stability),[4]; 30 min at 60° C.,8.51 U/ml
same,act. (temperature stability),[4]; 30 min at 70° C.,0.56 U/ml
same,Activity,"[5]; pH 4.0, Na acetate/acetic acid",6.86 U/ml
same,pH value of maximum stability (larger maximum),"[5]; pH 4 to 11, 30 min",9.0
same,pH value of the smaller maximum of pH stability,"[5]; pH 4 to 11, 30 min",5.5
same,pH value of maximum stability (larger maximum),"[5]; pH 4 to 11, 30 min, listed as ADHs according to the invention",about 9.0
same,Activity,"[5]; pH 4.5, Na acetate/acetic acid",6.22 U/ml
same,Activity,"[5]; pH 5.0, MES/NaOH",7.04 U/ml
same,Activity,"[5]; pH 5.5, MES/MaOH",8.73 U/ml
same,Activity,"[5]; pH 6.0, triethanolamine/NaOH",5.58 U/ml
same,Activity,"[5]; pH 6.5, triethanolamine/NaOH",5.80 U/ml
same,Activity,"[5]; pH 7.0, triethanolamine/NaOH",6.57 U/ml
same,Activity,"[5]; pH 7.5, Tris/HCl",5.04 U/ml
same,Activity,"[5]; pH 8.0, Tris/HCl",3.83 U/ml
same,Activity,"[5]; pH 8.5, Tris/HCl",8.42 U/ml
same,Activity,"[5]; pH 9.0, Tris/HCl",17.11 U/ml
same,Activity,"[5]; pH 10.0, glycine/NaOH",1.25 U/ml
same,Activity,"[5]; pH 11.0, glycine/NaOH",2.43 U/ml
same,optimal test temperature (activity maximum),[6],50 °C
same,optimal test temperature (activity maximum),[6]; [8],ca. 50 °C
same,act. (temperature optimum),[6]; test temperature 25° C.,10.31 U/ml
same,act. (temperature optimum),[6]; test temperature 30° C.,9.66 U/ml
same,act. (temperature optimum),[6]; test temperature 37° C.,9.76 U/ml
same,act. (temperature optimum),[6]; test temperature 40° C.,17.78 U/ml
same,act. (temperature optimum),[6]; test temperature 42° C.,16.93 U/ml
same,act. (temperature optimum),[6]; test temperature 45° C.,18.06 U/ml
same,act. (temperature optimum),[6]; test temperature 47° C.,19.13 U/ml
same,act. (temperature optimum),[6]; test temperature 50° C.,31.46 U/ml
same,act. (temperature optimum),[6]; test temperature 55° C.,24.48 U/ml
same,act. (temperature optimum),[6]; test temperature 60° C.,23.69 U/ml
same,act. (temperature optimum),[6]; test temperature 65° C.,1.98 U/ml
same,act. (temperature optimum),[6]; test temperature 70° C.,0.58 U/ml
same,specific activity,[7],at least 400 U/mg
